Source: paper PMC8026773 (Alzheimer's & dementia : the journal of the Alzheimer's …, 2020)

B1: human TREM2 Ig domain (aa 19-134), wild type, without BirA tag, in solution (domain or fragment, UniProt Q9NZC2 19-134, looked up)
chain: HNTTVFQGVAGQSLQVSCPYDSMKHWGRRKAWCRQLGEKGPCQRVVSTHNLWLLSFLRRWNGSTAITDDTLGGTLTITLRNLQPHDAGLYQCQSLHGSEADTLRKVLVEVLADPLD
B2: human sTREM2 (aa 19-157), wild type, in solution (domain or fragment, UniProt Q9NZC2 19-157, looked up)
chain: HNTTVFQGVAGQSLQVSCPYDSMKHWGRRKAWCRQLGEKGPCQRVVSTHNLWLLSFLRRWNGSTAITDDTLGGTLTITLRNLQPHDAGLYQCQSLHGSEADTLRKVLVEVLADPLDHRDAGDLWFPGESESFEDAHVEH

Biological target: GST-Aβ42 (monomeric amyloid beta 1-42 as a GST-fusion protein) (UniProt P05067 672-713)
Sequence (P05067 672-713): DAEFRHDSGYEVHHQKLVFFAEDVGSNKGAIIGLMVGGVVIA
Test: BLI

Row | Binder | Kd
1 | B1 | 5.1 µM
2 | B2 | 3.8 µM
